Experimental data reported in PMC5514376 (The Journal of investigative dermatology, 2016).

Target: the molecule itself
Assay: crystal structure

B1: keratin 1-keratin 10 helix 2B heterodimer (K1-K10-2B) (complex, human)
chain 1: ESLYQSKYEELQITAGRHGDSVRNSKIEISELNRVIQRLRSEIDNVKKQISNLQQSISDAEQRGENALKDAKNKLNDLEDALQQAKEDLARLLRDYQELMNTKLALDLEIATYRTLLEGE
chain 2: EAWFNEKSKELTTEIDNNIEQISSYKSEITELRRNVQALEIELQSQLALKQSLEASLAETEGRYCVQLSQIQAQISALEEQLQQIRAETECQNTEYQQLLDIKIRLENEIQTYRSLLEGE
  binding result: binds
